Measured values as given in patent publication US20090263894A1 (AbbVie / Abbott, published 2009).
Numbering of substitutions follows the chain as printed.

How the values were obtained:
[1] = target: T1, human NGAL antigen (Neutrophil Gelatinase Associated Lipocalin) (human, UniProt P80188 21-198, biotin label in the hybridoma EIAs); test: SPR (BIAcore): mAb captured on anti-mouse Fc, 100 nM NGAL
T1 construct: also called NGAL-Bt; biotin labeled NGAL
Method: Using BIAcore, NGAL hybrid supernatants are evaluated for relative binding affinity to NGAL and grouped accordingly in NGAL binding epitope groups. The affinity assay was completed on a goat anti-mouse IgG Fc Capture Biosensor as follows. Flow cells were first equilibrated with a running buffer (hereinafter “Running Buffer”) that contains HBS-EP buffer spiked with 0.1% BSA and 0.1% CM-Dextran), at 10 μL/min. Next, 13 μL of supernatant was floated across individual flow cells capturing anti-NGAL antibody from the supernatant onto the biosensor, and with one flow cell being left blank as a reference flow cell. The flow cells then were washed for 5 minutes at 50 μL/min with Running Buffer, and 150 μL of NGAL antigen at a 100 nM concentration was injected across the chip followed by 5 minutes of Running Buffer. The relative binding kinetics, association and dissociation, were monitored via sensorgrams. The sensorgrams were analyzed using Scrubber 2.0 software (BioLogic Software Pty Ltd., Australia) to determine association and dissociation rates, as well as overall KD.

[2] = target: T2, NGAL rAg E147A displayed on yeast (human, UniProt P80188 21-198); test: flow cytometry, mAb titrated on yeast displaying NGAL
T2 construct: Yeast display AGA2 fusion as m5
T2 chain: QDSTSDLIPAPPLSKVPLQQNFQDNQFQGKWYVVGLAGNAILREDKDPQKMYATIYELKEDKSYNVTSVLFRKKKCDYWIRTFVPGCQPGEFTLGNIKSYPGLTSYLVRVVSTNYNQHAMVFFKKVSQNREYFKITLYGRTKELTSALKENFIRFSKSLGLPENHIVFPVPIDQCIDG
Method: (§1) The side chain of each of the NGAL rAg residues identified from the epitope selections was altered by site-directed mutagenesis to alanine to confirm the functional epitope (direct contact residues) of each NGAL mAb subclone.
(§2) The change in Gibbs free binding energy (ΔΔG_Ala-WT) was determined to assess the energetic impact of each alanine substitution for mAb binding. The change in Gibbs free binding energy upon alanine substitution was calculated using the following equation [2],
(§3) For these experiments, observed fluorescence (F) was used to solve for KD using equation [1]. The KD derived from equation [1] one was then used in equation [2] to derive the change in Gibbs free binding energy upon alanine substitution. The KD is read from the abscissa of each of the curves at the inflection point.

[3] = target: T3, NGAL rAg Q117A displayed on yeast (human, UniProt P80188 21-198); test: as above
T3 construct: Yeast display AGA2 fusion as m5
T3 chain: T2 chain with Q117A, A147E
Method: as §1, §2, §3

[4] = target: T4, NGAL rAg A119G displayed on yeast (human, UniProt P80188 21-198); test: as above
T4 construct: Yeast display AGA2 fusion as m5
T4 chain: T2 chain with A119G, A147E
Method: as §1, §2, §3

[5] = target: T5, NGAL rAg H118A displayed on yeast (human, UniProt P80188 21-198); test: as above
T5 construct: Yeast display AGA2 fusion as m5
T5 chain: T2 chain with H118A, A147E
Method: as §1, §2, §3

[6] = target: T6, NGAL rAg S158A displayed on yeast (human, UniProt P80188 21-198); test: as above
T6 construct: Yeast display AGA2 fusion as m5
T6 chain: T2 chain with A147E, S158A
Method: as §1, §2, §3

[7] = target: T7, NGAL rAg G160A displayed on yeast (human, UniProt P80188 21-198); test: as above
T7 construct: Yeast display AGA2 fusion as m5
T7 chain: T2 chain with A147E, G160A
Method: as §1, §2, §3

[8] = target: T8, NGAL rAg S14A displayed on yeast (human, UniProt P80188 21-198); test: as above
T8 construct: Yeast display AGA2 fusion as m5
T8 chain: T2 chain with S14A, A147E
Method: as §1, §2, §3

B1: anti-NGAL monoclonal antibody 1-2322-455 (antibody, V domains shown)
VH: EVQLVESGGGLVQPGGSLKLSCAASGFTFNNYYMSWVRQTPERRLEWVAYISSSGGSTYYSDSVRGRFTISRDTARNTLYLQMTSLKSEDTAMYYCARHFGDYSYFDYWGQGTTLTVSS
VL: DIQMTQSPASLSASVGETVTITCRASENFYSYLAWYQQKQGKSPQLLVYNAKTLAEGVPSRFSGSGSGTQFSLKINSLQPEDFGTYYCQHHYDIPLTFGAGTKLELKR
**Q.** What does the source list for B1?
**A.** Kd [1]: 0.155 nM; koff [1]: 7.28e-05 s⁻¹; kon [1]: 468000 M⁻¹ s⁻¹; Kd [2]: 492 nM; ΔKD (KD against KD of WT) [2]: 61000 fold; ΔΔG Ala-WT [2]: 6.5 kcal/mol; Kd [3]: 0.0307 nM; ΔKD (KD against KD of WT) [3]: 3.79 fold; ΔΔG Ala-WT [3]: 0.79 kcal/mol; Kd [4]: 0.00783 nM; ΔKD (KD against KD of WT) [4]: 0.97 fold; ΔΔG Ala-WT [4]: -0.02 kcal/mol; Kd [5]: 0.114 nM; ΔKD (KD against KD of WT) [5]: 14.1 fold; ΔΔG Ala-WT [5]: 1.56 kcal/mol

B2: anti-NGAL monoclonal antibody 1-903-430 (antibody, V domains shown)
VH: KIQLVQSGPELKKPGETVKISCKASGYTFTNYGMNWVKQAPGKGLKWMGWININTGEPTYAEEFKGRFAFSLETSATTAFLQINNLKNEDTATYLCARDSYSGGFDYWGQGTIVTVSS
VL: DIVMTQSPSSLSVSAGEKVTLSCKSSQSLLISGDQKNYLAWYQQKPGQPPKLLIYGASTRDSGVPDRFTGSGSGADFTLTISSVQAEDLAVYYCQNDHSFPPTFGAGTKLELKR
**Q.** For B2, which Kd [1] is on record?
**A.** The Kd was 1.01 nM.

**Q.** What about the koff [1] of the same binder?
**A.** The koff was 0.000272 s⁻¹.

**Q.** What about the kon [1] of the same binder?
**A.** Its kon is 269000 M⁻¹ s⁻¹.

**Q.** And the Kd [6]?
**A.** The Kd was 0.242 nM.

**Q.** And the “ΔKD (KD against KD of WT)” value [6]?
**A.** Its value is 1.19 fold.

**Q.** And the “ΔΔG Ala-WT” value [6]?
**A.** Its value is 0.1 kcal/mol.

**Q.** And the Kd [7]?
**A.** The Kd was 0.164 nM.

**Q.** And the “ΔKD (KD against KD of WT)” value [7]?
**A.** Its value is 0.8 fold.

**Q.** What about the “ΔΔG Ala-WT” value [7] of the same binder?
**A.** The value was -0.13 kcal/mol.

**Q.** What about the Kd [8] of the same binder?
**A.** The Kd was 0.281 nM.

**Q.** And the “ΔKD (KD against KD of WT)” value [8]?
**A.** Its value is 1.38 fold.

**Q.** What about the “ΔΔG Ala-WT” value [8] of the same binder?
**A.** The value was 0.19 kcal/mol.
